Columns and labels:
Assay in all cases: co-IP, anti-FLAG, lysate of cells with C-FLAG B3GNT2; mass spectrometry
GGCT = target: T1, GGCT (human, UniProt O75223 1-188)
T1 construct: also called NP_076956.1
T1 sequence (looked up): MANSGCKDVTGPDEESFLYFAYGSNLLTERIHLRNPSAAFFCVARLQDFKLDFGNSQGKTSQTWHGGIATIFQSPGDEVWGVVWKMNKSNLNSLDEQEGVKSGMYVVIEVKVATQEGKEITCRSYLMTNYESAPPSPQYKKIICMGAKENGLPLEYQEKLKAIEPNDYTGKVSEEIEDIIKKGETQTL
Method: (§1) Cells were plated in 10-cm cell culture dishes and grown to 60-80% confluency. For each condition, two biological replicates were harvested for co-IP. Cells were washed with PBS and 4 mL of lysis buffer (20 mM HEPES, 1% Triton X-100, 150 mM NaCl, 1 mM EDTA, and 10% glycerol) containing protease inhibitor cocktail was added. Cells were scraped and lysate was incubated at 4° C. under rotary agitation for 1 h. Lysate was centrifuged at 14,000×g for 10 min at 4° C. Supernatant was transferred to a new tube and an aliquot was taken as the input. […] For Western blots, 10 μg/mL Chicken Anti-FLAG (Aves labs ET-DY100) and IgY control (R&D Systems AB-101-C) antibodies were biotinylated (Thermo Fisher Scientific 90407) and added to the respective conditions. Lysates with antibodies were incubated at 4° C. under rotary agitation overnight. For each mL of lysate, 50 μL of Pierce Protein A/G Magnetic Beads (Mass spectrometry; Thermo Fisher Scientific 88803) or Pierce Streptavidin Magnetic Beads (Western blot; Thermo Fisher Scientific 88817) was washed twice with lysis buffer. Lysates with antibodies were added to the beads and incubated at 4° C. under rotary agitation for 4 h. Beads were washed with lysis buffer 3 times and resuspended in lysis buffer for storage.
(§2) Magnetic beads were resuspended in 100 mM Tris pH 7.8, reduced, alkylated and digested with trypsin at 37° ° C. overnight. This solution was subjected to solid phase extraction to concentrate the peptides and remove unwanted reagents followed by injection onto a Shimadzu HPLC with fraction collector. Eight fractions were collected and after concentration were injected on a Waters NanoAcquity HPLC equipped with a self-packed Aeris 3 μm C18 analytical column 0.075 mm by 20 cm, (Phenomenex). Peptides were eluted using standard reverse-phase gradients. The effluent from the column was analyzed using a Thermo Orbitrap Elite mass spectrometer (nanospray configuration) operated in a data dependent manner for 54 minutes. The resulting fragmentation spectra were correlated against the known database using Proteome Discover 1.4 (Thermo Fisher Scientific).

LMNA = target: T2, LMNA (human, UniProt P02545 1-646, limits assumed)
T2 construct: also called NP_733821.1
T2 sequence (looked up): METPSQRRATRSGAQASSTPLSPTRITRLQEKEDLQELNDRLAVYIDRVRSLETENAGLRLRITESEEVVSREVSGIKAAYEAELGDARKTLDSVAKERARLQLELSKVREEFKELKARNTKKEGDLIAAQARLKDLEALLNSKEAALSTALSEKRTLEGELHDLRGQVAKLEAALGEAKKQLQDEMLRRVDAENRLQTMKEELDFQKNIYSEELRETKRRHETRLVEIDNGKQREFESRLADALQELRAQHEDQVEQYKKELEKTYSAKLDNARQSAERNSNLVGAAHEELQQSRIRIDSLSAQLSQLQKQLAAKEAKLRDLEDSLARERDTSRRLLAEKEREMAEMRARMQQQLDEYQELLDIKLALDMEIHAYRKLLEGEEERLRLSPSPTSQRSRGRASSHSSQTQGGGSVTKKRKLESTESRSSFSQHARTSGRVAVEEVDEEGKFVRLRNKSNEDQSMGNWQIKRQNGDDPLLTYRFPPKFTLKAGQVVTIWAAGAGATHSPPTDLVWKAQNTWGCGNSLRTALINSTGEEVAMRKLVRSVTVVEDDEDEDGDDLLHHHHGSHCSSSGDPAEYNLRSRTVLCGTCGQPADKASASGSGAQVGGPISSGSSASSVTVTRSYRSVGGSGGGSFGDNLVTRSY
Method: as §1, §2

KRT6B = target: T3, KRT6B (human, UniProt P04259 2-564)
T3 construct: also called NP_00546.2
T3 sequence (looked up): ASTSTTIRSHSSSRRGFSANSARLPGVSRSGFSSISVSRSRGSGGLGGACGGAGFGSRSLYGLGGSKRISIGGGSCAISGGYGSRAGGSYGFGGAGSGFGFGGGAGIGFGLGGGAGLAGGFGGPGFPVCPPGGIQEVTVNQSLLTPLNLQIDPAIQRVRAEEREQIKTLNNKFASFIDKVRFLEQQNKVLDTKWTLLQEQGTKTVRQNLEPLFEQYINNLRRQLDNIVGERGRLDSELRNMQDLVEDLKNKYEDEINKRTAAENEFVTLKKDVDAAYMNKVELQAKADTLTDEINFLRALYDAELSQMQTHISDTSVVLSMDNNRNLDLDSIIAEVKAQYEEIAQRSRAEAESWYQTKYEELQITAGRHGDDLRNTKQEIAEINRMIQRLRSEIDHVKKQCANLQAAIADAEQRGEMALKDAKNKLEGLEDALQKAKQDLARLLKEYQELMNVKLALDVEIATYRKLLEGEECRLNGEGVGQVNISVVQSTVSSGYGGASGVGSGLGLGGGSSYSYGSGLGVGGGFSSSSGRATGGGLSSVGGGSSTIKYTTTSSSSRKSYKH
Method: as §1, §2

MYH11 = target: T4, MYH11 (human, UniProt P35749-3 1-1945, limits assumed)
T4 construct: also called NP_001035202.1 (+4)
T4 sequence (P35749 other isoform, or with tags, fused parts or gaps limits assumed): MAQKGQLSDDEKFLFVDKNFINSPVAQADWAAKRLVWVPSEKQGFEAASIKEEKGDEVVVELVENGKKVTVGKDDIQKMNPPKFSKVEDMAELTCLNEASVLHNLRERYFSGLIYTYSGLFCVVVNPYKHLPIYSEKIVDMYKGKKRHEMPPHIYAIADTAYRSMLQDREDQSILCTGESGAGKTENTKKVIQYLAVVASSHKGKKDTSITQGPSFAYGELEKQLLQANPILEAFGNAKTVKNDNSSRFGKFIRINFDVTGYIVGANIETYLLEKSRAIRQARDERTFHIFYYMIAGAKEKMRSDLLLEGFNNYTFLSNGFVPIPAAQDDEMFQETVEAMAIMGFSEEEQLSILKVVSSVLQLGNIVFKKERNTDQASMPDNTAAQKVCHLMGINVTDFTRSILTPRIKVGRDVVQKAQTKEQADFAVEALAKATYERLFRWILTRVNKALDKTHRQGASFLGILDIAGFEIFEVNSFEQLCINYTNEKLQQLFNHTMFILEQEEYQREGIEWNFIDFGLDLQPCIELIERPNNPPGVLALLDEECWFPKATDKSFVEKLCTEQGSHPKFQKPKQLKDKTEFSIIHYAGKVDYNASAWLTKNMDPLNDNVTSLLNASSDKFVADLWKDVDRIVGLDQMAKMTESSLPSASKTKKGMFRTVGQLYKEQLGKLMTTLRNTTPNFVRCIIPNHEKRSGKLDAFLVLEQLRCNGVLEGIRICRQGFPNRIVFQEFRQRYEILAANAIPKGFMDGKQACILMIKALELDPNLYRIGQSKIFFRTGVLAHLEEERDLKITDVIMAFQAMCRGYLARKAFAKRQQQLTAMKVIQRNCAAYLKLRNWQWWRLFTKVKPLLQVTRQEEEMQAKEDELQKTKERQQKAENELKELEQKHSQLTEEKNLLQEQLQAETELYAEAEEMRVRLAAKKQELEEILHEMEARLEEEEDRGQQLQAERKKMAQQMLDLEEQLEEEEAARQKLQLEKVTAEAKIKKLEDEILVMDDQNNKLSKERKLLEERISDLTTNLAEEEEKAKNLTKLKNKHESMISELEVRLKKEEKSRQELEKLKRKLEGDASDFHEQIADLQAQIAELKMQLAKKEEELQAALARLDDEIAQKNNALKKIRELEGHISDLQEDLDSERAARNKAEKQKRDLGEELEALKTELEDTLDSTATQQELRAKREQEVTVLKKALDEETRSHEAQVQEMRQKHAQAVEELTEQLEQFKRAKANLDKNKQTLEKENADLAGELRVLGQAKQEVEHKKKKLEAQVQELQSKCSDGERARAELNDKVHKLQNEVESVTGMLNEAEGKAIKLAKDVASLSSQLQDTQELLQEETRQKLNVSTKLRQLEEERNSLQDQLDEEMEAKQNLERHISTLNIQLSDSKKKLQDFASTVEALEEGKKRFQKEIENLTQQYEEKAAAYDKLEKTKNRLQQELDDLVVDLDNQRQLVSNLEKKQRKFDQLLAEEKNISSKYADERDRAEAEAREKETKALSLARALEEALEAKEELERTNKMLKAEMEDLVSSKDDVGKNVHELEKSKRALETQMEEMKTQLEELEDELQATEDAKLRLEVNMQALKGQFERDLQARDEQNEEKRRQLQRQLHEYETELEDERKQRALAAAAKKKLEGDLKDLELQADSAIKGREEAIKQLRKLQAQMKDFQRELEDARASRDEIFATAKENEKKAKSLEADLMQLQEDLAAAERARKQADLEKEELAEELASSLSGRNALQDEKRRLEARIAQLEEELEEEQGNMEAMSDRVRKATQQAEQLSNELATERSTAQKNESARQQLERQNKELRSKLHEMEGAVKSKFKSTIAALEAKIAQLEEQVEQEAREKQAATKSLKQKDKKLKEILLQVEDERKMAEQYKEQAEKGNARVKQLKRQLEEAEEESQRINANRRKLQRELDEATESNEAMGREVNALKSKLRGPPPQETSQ
Method: as §1, §2

B1: C-terminal FLAG tagged B3GNT2 (enzyme, human, UniProt Q9NY97 1-397, looked up)
chain: MSVGRRRIKLLGILMMANVFIYFIMEVSKSSSQEKNGKGEVIIPKEKFWKISTPPEAYWNREQEKLNRQYNPILSMLTNQTGEAGRLSNISHLNYCEPDLRVTSVVTGFNNLPDRFKDFLLYLRCRNYSLLIDQPDKCAKKPFLLLAIKSLTPHFARRQAIRESWGQESNAGNQTVVRVFLLGQTPPEDNHPDLSDMLKFESEKHQDILMWNYRDTFFNLSLKEVLFLRWVSTSCPDTEFVFKGDDDVFVNTHHILNYLNSLSKTKAKDLFIGDVIHNAGPHRDKKLKYYIPEVVYSGLYPPYAGGGGFLYSGHLALRLYHITDQVHLYPIDDVYTGMCLQKLGLVPEKHKGFRTFDIEEKNKNNICSYVDLMLVHSRKPQEMIDIWSQLQSAHLKC
notes: Overexpressed in cells and pulled down from the lysate with mouse anti-FLAG antibody; also called C-FLAG B3GNT2; C-term flag; not shown: C-terminal FLAG tag
co-IP mass spectrometry count (GGCT): 0
co-IP mass spectrometry count (LMNA): 22
co-IP mass spectrometry count (KRT6B): 331
co-IP mass spectrometry count (MYH11): 7

From patent US20240261333A1 (published 2024)
